Test results taken from PMC12229552 (Nature Communications, 2025).

Biological target: GST-tagged human EZH2 (human, UniProt Q15910-2 1-751)
Test: pull-down

binding result: binds
B1: 6×His-tagged human DDX1 (natural protein, UniProt Q92499-1 1-740, looked up)
chain: MAAFSEMGVMPEIAQAVEEMDWLLPTDIQAESIPLILGGGDVLMAAETGSGKTGAFSIPVIQIVYETLKDQQEGKKGKTTIKTGASVLNKWQMNPYDRGSAFAIGSDGLCCQSREVKEWHGCRATKGLMKGKHYYEVSCHDQGLCRVGWSTMQASLDLGTDKFGFGFGGTGKKSHNKQFDNYGEEFTMHDTIGCYLDIDKGHVKFSKNGKDLGLAFEIPPHMKNQALFPACVLKNAELKFNFGEEEFKFPPKDGFVALSKAPDGYIVKSQHSGNAQVTQTKFLPNAPKALIVEPSRELAEQTLNNIKQFKKYIDNPKLRELLIIGGVAARDQLSVLENGVDIVVGTPGRLDDLVSTGKLNLSQVRFLVLDEADGLLSQGYSDFINRMHNQIPQVTSDGKRLQVIVCSATLHSFDVKKLSEKIMHFPTWVDLKGEDSVPDTVHHVVVPVNPKTDRLWERLGKSHIRTDDVHAKDNTRPGANSPEMWSEAIKILKGEYAVRAIKEHKMDQAIIFCRTKIDCDNLEQYFIQQGGGPDKKGHQFSCVCLHGDRKPHERKQNLERFKKGDVRFLICTDVAARGIDIHGVPYVINVTLPDEKQNYVHRIGRVGRAERMGLAISLVATEKEKVWYHVCSSRGKGCYNTRLKEDGGCTIWYNEMQLLSEIEEHLNCTISQVEPDIKVPVDEFDGKVTYGQKRAAGGGSYKGHVDILAPTVQELAALEKEAQTSFLHLGYLPNQLFRTF
